The target in assay [1] is SARS-CoV-2 spike (S) glycoprotein ectodomain, prefusion-stabilised trimer (SARS-CoV-2) (UniProt P0DTC2). Description: SPR. A general note: SPR reads the build-up and loss of mass on a sensor chip optically.
The target is the same in assay [2]. Description: negative-stain electron microscopy.

In general, Kd refers to a measure of binding affinity in units of concentration. Lower therefore signals a tighter complex. A word on the stoichiometry N: it is a count of units in the complex or per binding partner.

Where “and” joins values, the source holds several entries; their conditions need not be identical. Equal values may be shown once.

Turning to “DC-SIGN extracellular domain (Dendritic Cell-Specific Intercellular adhesion molecule-3-Grabbing Non-integrin) (from UniProt Q9NNX6 66-404) (domain or fragment)”, the Kd in assay [1] was 11.9 µM and 4.33 µM. Further, the stoichiometry N in assay [2] was 1 and > 2.

Take “L-SIGN extracellular domain (liver/lymph node-specific intracellular adhesion molecules-3 grabbing non-integrin) (from UniProt Q9H2X3 78-399) (domain or fragment)”: in assay [1], the dissociation constant (Kd) is 1.8 µM and 1.66 µM. As for “MGL (Macrophage galactose lectin) extracellular domain (domain or fragment)”, in assay [1], the Kd amounted to 7 µM.

The record behind these values is article PMC8136665.
